In patent publication US20240417437A1, “Linker Polypeptides” (Trutino Biosciences Inc., priority 2021, published 2024):
Where no end group is shown, it is not given here. The star is where a group is joined. EDANS = O=S(=O)(O)c1cccc2c(NCCN*)cccc12

Assays:
[1] = molecular target: biotin-labelled collagen IV (Prospec); test: EDANS peptide (20 µM) on biotin-collagen IV-coated streptavidin magnetic beads, fluorescence Ex 340/Em 490, pH 7.5
[2] = molecular target: collagen cross-linked to agarose (Sigma); test: collagen-agarose pulldown, anti-mouse IL-2 immunoblot, band quantitation
[3] = molecular target: collagen cross-linked to agarose (Sigma); test: collagen-agarose pulldown, anti-mouse IL-2 immunoblot, band intensity of the collagen-bound lane (Input (2%) band: 16707)
[4] = molecular target: collagen cross-linked to agarose (Sigma); test: collagen-agarose pulldown, anti-mouse IL-2 immunoblot, band intensity of the collagen-bound lane (Input (2%) band: 15267)
[5] = molecular target: collagen cross-linked to agarose (Sigma); test: pulldown with collagen-agarose, immunoblot quantified with iBright imaging system; reference Construct B
[6] = molecular target: collagen cross-linked to agarose (Sigma); test: pulldown with collagen-agarose, immunoblot quantified with iBright imaging system

| Binder | RFU [1] | Bound (% input) [2] | further results |
| --- | --- | --- | --- |
| GGGSGGGGPLGVRG-{EDANS} [P1] | 297 RFU | – | – |
| Construct B - no TME: mIL2-2x(SG4)-MMPcs1-2x(G4S)-mIL2Ralpha(1-215)-mIgG1Fc (Fc fusion) APTSSSTSSSTAEAQQQQQQQQQQQQHLEQLLMDLQELLSRMENYRNLKLPRMLTFKFYLPKQATELKDLQCLEDELGPLRHVLDLTQSKSFQLEDAENFISNIRVTVVKLKGSDNTFECQFDDESATVVDFLRRWIAFCQSIISTSPQSGGGGSGGGGGPLGVRGGGGGSGGGGSELCLYDPPEVPNATFKALSYKNGTILNCECKRGFRRLKELVYMRCLGNSWSSNCQCTSNSHDKSRKQVTAQLEHQKEQQTTTDMQKPTQSMHQENLTGHCREPPPWKHEDSKRIYHFVEGQSVHYECIPGYKALQRGPAISICKMKCGKTGWTQPQLTCVDEREHHRFLASEESQGSRNSSPESETSCPITTTDFPQPTETTAMTETFVLTMEYKGCKPCICTVPEVSSVFIFPPKPKDVLTITLTPKVTCVVVDISKDDPEVQFSWFVDDVEVHTAQTQPREEQFNSTFRSVSELPIMHQDWLNGKEFKCRVNSAAFPAPIEKTISKTKGRPKAPQVYTIPPPKEQMAKDKVSLTCMITDFFPEDITVEWQWNGQPAENYKNTQPIMDTDGSYFVYSKLNVQKSNWEAGNTFTCSVLHEGLHNHHTEKSLSHSPGK | – | 0.3 % of input | Bound [3]: 2310 |
| Construct GG (collagen IV): mIL2-SGG-KLWVLPK(SEQ ID NO: 200)-MMPcs1-2x(G4S)-mIL2Ra(1-215)-muIgG1Fc (Fc fusion) APTSSSTSSSTAEAQQQQQQQQQQQQHLEQLLMDLQELLSRMENYRNLKLPRMLTFKFYLPKQATELKDLQCLEDELGPLRHVLDLTQSKSFQLEDAENFISNIRVTVVKLKGSDNTFECQFDDESATVVDFLRRWIAFCQSIISTSPQSGGKLWVLPKGPLGVRGGGGGSGGGGSELCLYDPPEVPNATFKALSYKNGTILNCECKRGFRRLKELVYMRCLGNSWSSNCQCTSNSHDKSRKQVTAQLEHQKEQQTTTDMQKPTQSMHQENLTGHCREPPPWKHEDSKRIYHFVEGQSVHYECIPGYKALQRGPAISICKMKCGKTGWTQPQLTCVDEREHHRFLASEESQGSRNSSPESETSCPITTTDFPQPTETTAMTETFVLTMEYKGCKPCICTVPEVSSVFIFPPKPKDVLTITLTPKVTCVVVDISKDDPEVQFSWFVDDVEVHTAQTQPREEQFNSTFRSVSELPIMHQDWLNGKEFKCRVNSAAFPAPIEKTISKTKGRPKAPQVYTIPPPKEQMAKDKVSLTCMITDFFPEDITVEWQWNGQPAENYKNTQPIMDTDGSYFVYSKLNVQKSNWEAGNTFTCSVLHEGLHNHHTEKSLSHSPGK | – | 0.7 % of input | Bound [4]: 5190; fold of bound fraction over Construct B [5]: 2.5 fold; fraction bound (of input) [6]: < 1 % of input |
| KLWVLPKGPLGVRG-{EDANS} [Peptide 14 (…-*, next generation MMP cleavable linker with collagen IV targeting sequence)] | 4560 RFU | – | – |
| GGGSGLHERHLNNN-{EDANS} [Peptide 15 (…-*, linker peptide with collagen I targeting sequence)] | 490 RFU | – | – |
